Here are results for 40 molecules from patent US20250145729A1 (DENALI THERAPEUTICS, published 2025).

The chains are these.
T1: circularly permuted human TfR apical domain (human)
T1 construct: TfR residues 326-379 stand N-terminal to 194-296, loop 297-325 deleted; also called huTfR Apical Domain
T1 chain: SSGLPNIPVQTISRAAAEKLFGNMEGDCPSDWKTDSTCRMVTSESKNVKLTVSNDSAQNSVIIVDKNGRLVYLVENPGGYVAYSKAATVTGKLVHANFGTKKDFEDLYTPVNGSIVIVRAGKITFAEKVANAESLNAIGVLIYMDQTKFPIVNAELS

T2: human CD98hc (human, UniProt P08195 109-529)
T2 construct: also called huCD98hc; CD98 heavy chain
T2 sequence: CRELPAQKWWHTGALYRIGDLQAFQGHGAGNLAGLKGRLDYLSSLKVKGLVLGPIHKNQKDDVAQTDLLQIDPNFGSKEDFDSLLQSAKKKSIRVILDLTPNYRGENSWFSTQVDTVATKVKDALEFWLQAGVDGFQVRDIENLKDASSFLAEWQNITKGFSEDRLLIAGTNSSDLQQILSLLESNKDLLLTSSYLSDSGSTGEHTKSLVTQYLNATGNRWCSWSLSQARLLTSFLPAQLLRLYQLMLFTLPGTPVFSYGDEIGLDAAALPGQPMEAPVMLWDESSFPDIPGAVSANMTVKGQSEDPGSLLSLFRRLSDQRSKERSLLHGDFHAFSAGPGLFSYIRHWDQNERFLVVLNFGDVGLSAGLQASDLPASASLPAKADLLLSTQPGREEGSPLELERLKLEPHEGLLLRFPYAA

B1: 6.5.11.5.42.2.d1 (Fc fusion)
chain: APELLGGPSVFLFPPKPKDTLMISRTPEVTCVVVDVSHEDPEVKFNWYVDGVEVHNAKTKPREEQYNSTYRVVSVLTVLHQDWLNGKEYKCKVSNKALPAPIEKTISKAKGQPREPQVYTLPPSRDELTKNQVSLTCLVKGFYPSDIAVEWFSNGSKETNYKTTPPVLDSDGSFFLYSKLTVDKSRWQQGNLFACEVMHEALHNHYTYKLLSLSPGK
B2: 6.5.11.5.42.2.d15 (Fc fusion)
chain: B1 chain with N154F, S156Q
B3: 6.5.11.5.42.2.d6 (Fc fusion)
chain: B1 chain with N154F
B4: 6.5.11.5.42.2.d3 (Fc fusion)
chain: B1 chain with N154D, K157P
B5: 6.5.11.5.42.2.d12 (Fc fusion)
chain: B1 chain with N154D, K157P, T159N
B6: 6.5.11.5.42.2.d2 (Fc fusion)
chain: B1 chain with N154D, S156Q
B7: 6.5.11.5.42.2.d14 (Fc fusion)
chain: B1 chain with S156Q
B8: 6.5.11.5.42.2.d7 (Fc fusion)
chain: B1 chain with N154A
B9: 6.5.11.5.42.2.d13 (Fc fusion)
chain: B1 chain with N154D, K157P, T159N, L192V
B10: 6.5.11.5.42.2.d4 (Fc fusion)
chain: B1 chain with N154D, S156G
B11: 6.5.11.5.42.2.d10 (Fc fusion)
chain: B1 chain with N154D, K157T
B12: 6.5.11.5.42.2.d8 (Fc fusion)
chain: B1 chain with N154D, G155A
B13: 6.5.11.5.42.2.d9 (Fc fusion)
chain: B1 chain with N154D, S156A
B14: 6.5.11.5.42.2.d11 (Fc fusion)
chain: B1 chain with N154D, T159S
B15: LLB2.10.8.10.8.N (Fc fusion)
chain: APELLGGPSVFLFPPKPKDTLMISRTPEVTCVVVDVSHEDPEVKFNWYVDGVEVHNAKTKPREEQYNSTYRVVSVLTVLHQDWLNGKEYKCKVSNKALPAPIEKTISKAKGQPREPQVYTLPPSRDELTKNQVSLTCLVKGFYPSDIAVLWNSRFVLENNYKTTPPVLDSDGSFFLYSKLTVDKSRWQQGNIFACNVYHEALHNHYTFKNLHLSPGK
notes: Fc part only; changes read against LLB2-10-8
B16: LLB2.C.3 (Fc fusion)
chain: B15 chain with L150V, R154Q, F155Y, V156E, I192V, Y198W, H212S
notes: Fc part only
B17: LLB2-31 (Fc fusion)
chain: B15 chain with R154Q, H212A
notes: Fc part only
B18: LLS2.33.2 (Fc fusion)
chain: B15 chain with L150A, R154K, V156E, I192L, Y198W, H212S
notes: Fc part only; also called LLB2.33.2
B19: LLB2.10.8.10.3.N (Fc fusion)
chain: B15 chain with H212R
notes: as for B15
B20: LLB2.10.8.14.4.N (Fc fusion)
chain: B15 chain with Y206R, H212A
notes: as for B15
B21: LLB2.10.8.9.11.N (Fc fusion)
chain: B15 chain with I192T, H212A
notes: Fc part only
B22: LLS2.33.5 (Fc fusion)
chain: B15 chain with L150Q, N152S, R154Q, F155Y, V156E, I192V, Y198W, H212S
notes: Fc part only; also called LLB2.33.5
B23: LLS2.C.4 (Fc fusion)
chain: B15 chain with L150A, V156E, Y198W, H212S
notes: Fc part only; also called LLB2.C.4
B24: LLS2.43.5 (Fc fusion)
chain: B15 chain with L150M, R154Q, F155Y, V156E, I192V, Y198H, H212S
notes: Fc part only; also called LLB2.43.5
B25: LLB2.10.8.14.3.N (Fc fusion)
chain: B15 chain with Y206R, H212R
notes: as for B15
B26: LLB2-24 (Fc fusion)
chain: B15 chain with A148E, S153T, N159T, Y161A, N191E, Y198L, Y206F, H212A
notes: Fc part only
B27: LLB2.10.8.10.1.N (Fc fusion)
chain: B15 chain with H212K
notes: as for B15
B28: LLB2-37 (Fc fusion)
chain: B15 chain with R154Q, V156H, H212L
notes: Fc part only
B29: LLB2-30 (Fc fusion)
chain: B15 chain with R154Q, V156L, H212Q
notes: Fc part only
B30: LLB2.10.8.4.12.N (Fc fusion)
chain: B15 chain with Y206W, H212R
notes: as for B15
B31: LLB2.10.8.12.5.N (Fc fusion)
chain: B15 chain with R154H, F155Y, V156E, H212A
notes: as for B15
B32: LLS2.33.8 (Fc fusion)
chain: B15 chain with L150A, R154K, V156R, I192L, Y198W, H212S
notes: Fc part only; also called LLB2.33.8
B33: LLS2.C.15 (Fc fusion)
chain: B15 chain with L150K, V156Q, I192L, Y198W, H212S
notes: Fc part only; also called LLB2.C.15
B34: LLB2-21 (Fc fusion)
chain: B15 chain with A148D, V156L, N159T, Y161T, N191E, Y198L, H212K
notes: Fc part only
B35: LLB2-23 (Fc fusion)
chain: B15 chain with A148V, N159Q, Y161V, N191E, Y198L, H212V
notes: Fc part only
B36: LLB2-10-8.d20 (Fc fusion)
chain: B15 chain with N152S, R154H, F155Y, V156E, I192V, H212A
notes: Fc part only
B37: LLB2-10-8.d21 (Fc fusion)
chain: B15 chain with N152S, I192V, H212A
notes: Fc part only
B38: LLB2-10-8.d22 (Fc fusion)
chain: B15 chain with N152S, R154K, V156E, I192V, H212A
notes: Fc part only
B39: LLB2-10-8.d23 (Fc fusion)
chain: B15 chain with N152S, R154Q, F155Y, V156E, I192V, H212A
notes: Fc part only
B40: LLB2-10-8.d24 (Fc fusion)
chain: B15 chain with F155Y, I192V, H212A
notes: Fc part only

For orientation: Kd means the free concentration of one partner at which half of the binding sites on the other are occupied at equilibrium, for simple one-to-one binding. Read a low Kd as a tighter complex.

Substitutions are numbered along the chain they refer to.

The target of one test is T1, circularly permuted human TfR apical …. As to the kind of experiment: Biacore SPR. For orientation: In SPR one partner is held on a chip, and binding of the other changes the refractive index at the surface.
Turning to B1, binding was characterised by a dissociation constant (Kd) of 3.6 µM.
The same measure, in the same setting: under B2 stands 2 µM; under B3, 24 µM; under B4, 3.5 µM.
The same measure, in the same setting: under B5 stands 4.9 µM; under B6, 3.5 µM; under B7, 9.4 µM.
Same read-out and setting: under B8 stands 29 µM.
Regarding B9, the binding result is on record as “no binding”.
B10: the Kd turned out to be 8.7 µM.
On to B11, for which the affinity, expressed as Kd, was 1.8 µM.
Same read-out and setting: under B12 stands 4.4 µM.
On the same count and under the same terms, under B13 stands 2 µM; under B14, 1.8 µM.

For another test, the target named is T3, cyno CD98hc (cynomolgus monkey).
T3 construct: also called cynomolgus CD98hc; cyCD98hc
As to the kind of experiment: SPR (Biacore). The gist of the method:
(§1)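 Binding affinity (Kd) of the engineered Fc polypeptides for CD98hc was measured by surface plasmon resonance on a Biacore instrument. Clones were cloned, expressed and purified as Fc-Fab fusions carrying anti-BACE1 Fabs. They were tested in a bivalent format or in a monovalent knob/hole format with the CD98hc-binding site on the knob chain only. The text gives no concentrations, temperature, buffer or replicate numbers.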
As to B15, binding was characterised by a dissociation constant (Kd) of 2.2 µM.
Still for that read-out and setting: under B16 stands 3.5 µM.
Same read-out and setting: under B17 stands 2.1 µM; under B18, 4.5 µM.
The same measure, in the same setting: next, B19: 2 µM.
In turn, B20 yielded a Kd of 2.36 µM.
Molecule B21 gave a dissociation constant (Kd) of 4.5 µM.
Same read-out and setting: next, B22: 6.9 µM; B23: 2.7 µM; B24: 5.9 µM.
On the same count and under the same terms, next, B25: 1.9 µM; B26: 6.2 µM; B27: 1.8 µM.
Regarding B28, binding was characterised by a dissociation constant (Kd) of 2.8 µM.
Regarding B29, the Kd was determined as 2 µM.
Still for that read-out and setting: under B30 stands 0.7 µM; under B31, 4.7 µM.
B32 gave a Kd of 8.2 µM.
On the same count and under the same terms, under B33 stands 2.2 µM.
In the case of B34, the Kd was found to be 2.3 µM.
Regarding B35, binding was put at a Kd of 2.6 µM.

The target in another test is T2, human CD98hc. As to the kind of experiment: SPR (Biacore). In short, it runs like this:
as §1
The molecule B15 displayed a Kd of 0.65 µM.
Same read-out and setting: next, B16: 1 µM.
The same measure, in the same setting: under B17 stands 0.64 µM; under B18, 2 µM.
Still for that read-out and setting: next, B19: 0.49 µM.
B20 returned a Kd of 0.35 µM.
Still for that read-out and setting: under B21 stands 1.2 µM.
Same read-out and setting: next, B22: 1.7 µM; B23: 0.7 µM; B24: 1.2 µM.
Same read-out and setting: under B25 stands 0.27 µM; under B26, 1.1 µM.
B27 gave a Kd of 0.5 µM.
Same read-out and setting: under B28 stands 0.61 µM; under B29, 0.45 µM; under B30, 0.14 µM.
B31 showed a Kd of 1.5 µM.
B32 returned a Kd of 2.2 µM.
Same read-out and setting: next, B33: 0.62 µM; B34: 0.42 µM.
With B35, the Kd came out at 0.5 µM.

In another test the target is T2, human CD98hc. As to the kind of experiment: SPR (Biacore). The source holds these as a separate data set. As to the method: Variants that bound with measurable affinity from this round of engineering are shown in Table A12 and the corresponding human binding affinity by surface plasmon resonance (SPR) using a Biacore™ machine are shown in Table 9B. Cell binding of the clones was also tested in HeLa cells for huCD98hc binding and CHO cells as a negative control.
B36 yielded a Kd of 2.3 µM.
For the molecule B37, the Kd worked out at 2 µM.
Same read-out and setting: next, B38: 5.2 µM; B39: 1.8 µM.
Molecule B40 gave a Kd of 2.6 µM.
